# From patent US11306156
# Key:
# [1] = target: D3H44 light chain Q124R_Q160K_T178R, N-terminal HA or FLAG tag; assay: LCCA, SPR of light chain tags, L1:L2 DNA 1:3 norm. to 1:1; other light chain m15
# [2] = target: D3H44 light chain Q124R_Q160K_T178R, N-terminal HA or FLAG tag; assay: LCCA, SPR of light chain tags, L1:L2 DNA 1:3 norm. to 1:1; other light chain m16
# [3] = target: D3H44 light chain Q124E_S131T_T178Y_T180E, N-terminal HA or FLAG tag; assay: LCCA, SPR of light chain tags, L1:L2 DNA 1:3 norm. to 1:1; other light chain m17
# [4] = target: D3H44 light chain Q124E_S176L_T180E, N-terminal HA or FLAG tag; assay: as above
# [5] = target: D3H44 light chain Q124E_V133D_S176L, N-terminal HA or FLAG tag; assay: as above
# [6] = target: D3H44 light chain Q124R, N-terminal HA or FLAG tag; assay: LCCA, SPR of light chain tags, L1:L2 DNA 1:3 norm. to 1:1; other light chain m18
# [7] = target: D3H44 light chain Q124E_V133D, N-terminal HA or FLAG tag; assay: LCCA, SPR of light chain tags, L1:L2 DNA 1:3 norm. to 1:1; other light chain m24
# [8] = target: D3H44 light chain Q124E_V133E, N-terminal HA or FLAG tag; assay: as above
# [9] = target: D3H44 light chain Q124R_Q160K_T178R, N-terminal HA or FLAG tag; assay: LCCA, SPR of light chain tags, L1:L2 DNA 1:3 norm. to 1:1; other light chain m27
# [10] = target: D3H44 light chain Q124R, N-terminal HA or FLAG tag; assay: LCCA, SPR of light chain tags, L1:L2 DNA 1:3 norm. to 1:1; other light chain m28
# [11] = target: D3H44 light chain Q124E_V133D_S176L, N-terminal HA or FLAG tag; assay: LCCA, SPR of light chain tags, L1:L2 DNA 1:9 norm. to 1:1; other light chain m17
# [12] = target: D3H44 light chain Q124E_V133D, N-terminal HA or FLAG tag; assay: LCCA, SPR of light chain tags, L1:L2 DNA 1:9 norm. to 1:1; other light chain m24
# [13] = target: D3H44 light chain Q124R_Q160K_T178R, N-terminal HA or FLAG tag; assay: LCCA, SPR of light chain tags, L1:L2 DNA 1:9 norm. to 1:1; other light chain m27
# [14] = target: D3H44 light chain Q124R, N-terminal HA or FLAG tag; assay: LCCA, SPR of light chain tags, L1:L2 DNA 1:9 norm. to 1:1; other light chain m28
# [15] = target: D3H44 light chain Q124E_S131T_T178F_T180E, N-terminal HA or FLAG tag; assay: LCCA, SPR of light chain tags, L1:L2 DNA 1:3 norm. to 1:1; other light chain m14
# [16] = target: D3H44 light chain Q124E_S131T_T178Y_T180E, N-terminal HA or FLAG tag; assay: as above
# [17] = target: D3H44 light chain Q124R_T178R, N-terminal HA or FLAG tag; assay: LCCA, SPR of light chain tags, L1:L2 DNA 1:3 norm. to 1:1; other light chain m15
# [18] = target: D3H44 light chain Q124E_Q160E_T178E, N-terminal HA or FLAG tag; assay: LCCA, SPR of light chain tags, L1:L2 DNA 1:3 norm. to 1:1; other light chain m17
# [19] = target: D3H44 light chain Q124E_T178E_T180E, N-terminal HA or FLAG tag; assay: as above
# [20] = target: D3H44 light chain Q124R_T178R, N-terminal HA or FLAG tag; assay: LCCA, SPR of light chain tags, L1:L2 DNA 1:3 norm. to 1:1; other light chain m20
# [21] = target: D3H44 light chain Q124R_Q160K_T178R, N-terminal HA or FLAG tag; assay: LCCA, SPR of light chain tags, L1:L2 DNA 1:3 norm. to 1:1; other light chain m21
# [22] = target: D3H44 light chain Q124R_Q160K_T178R, N-terminal HA or FLAG tag; assay: LCCA, SPR of light chain tags, L1:L2 DNA 1:3 norm. to 1:1; other light chain m23
# [23] = target: tissue factor (TF) antigen (UniProt P13726); assay: SPR, Fab captured on anti-penta His, TF injected; * estimated value taken from a Fab differing only in the L chain tag
# [24] = target: tissue factor (TF) antigen (UniProt P13726); assay: SPR; Fab captured by anti-His, TF as analyte; LCCA set 9104; estimated from the Fab differing only in L chain tag
# [25] = target: tissue factor (TF) antigen (UniProt P13726); assay: SPR; Fab captured by anti-His, TF as analyte; LCCA set 9116
# [26] = target: tissue factor (TF) antigen (UniProt P13726); assay: SPR; Fab captured by anti-His, TF as analyte; LCCA set 9347
# [27] = target: tissue factor (TF) antigen (UniProt P13726); assay: SPR; Fab captured by anti-His, TF as analyte; LCCA set 9374
# [28] = target: tissue factor (TF) antigen (UniProt P13726); assay: SPR; Fab captured by anti-His, TF as analyte; LCCA set 9375
# [29] = target: tissue factor (TF) antigen (UniProt P13726); assay: SPR; Fab captured by anti-His, TF as analyte; LCCA set 9813
# [30] = target: tissue factor (TF) antigen (UniProt P13726); assay: SPR; Fab captured by anti-His, TF as analyte; LCCA set 9814
# [31] = target: tissue factor (TF) antigen (UniProt P13726); assay: SPR; reference wild-type D3H44 Fab; * estimated value
# [32] = target: tissue factor (TF) antigen (UniProt P13726); assay: SPR, Fab captured by anti-His, TF as analyte; * estimated from Fab differing only in L chain tag
# [33] = target: D3H44 Fab heavy chain L143E_K145T_S188L, C-terminal ABD2-His6 tag; assay: LCCA: heavy chain co-expressed with two light chains, SPR detection of light chain tags; L1:L2 DNA 1:3, normalized to 1:1; competing light chain m11
# [34] = target: D3H44 Fab heavy chain Q179K, C-terminal ABD2-His6 tag; assay: as above
# [35] = target: D3H44 Fab heavy chain S186K, C-terminal ABD2-His6 tag; assay: as above
# [36] = target: D3H44 Fab heavy chain L143E_K145T, C-terminal ABD2-His6 tag; assay: as above
substance,measurement,setting,value
"D3H44 Fab heavy chain L143E_K145T_S188L, ABD2-His6 tagged",H1L1:H1L2 normalized median ratio,[1],74%
same,H1L1:H1L2 normalized median scalar value ln(r1/f1),[1],1.03
same,H1L1:H1L2 normalized median ratio,[2],57%
same,H1L1:H1L2 normalized median scalar value ln(r1/f1),[2],0.28
same,H1L1:H1L2 normalized median ratio,[3],26%
same,H1L1:H1L2 normalized median ratio,[4],43%
same,H1L1:H1L2 normalized median ratio,[5],23%
same,H1L1:H1L2 normalized median ratio,[6],69%
same,H1L1:H1L2 normalized median scalar value ln(r1/f1),[6],0.81
same,H1L1:H1L2 normalized median ratio,[7],16%
same,H1L1:H1L2 normalized median ratio,[8],31%
same,H1L1:H1L2 normalized median ratio,[9],77%
same,H1L1:H1L2 normalized median scalar value ln(r1/f1),[9],1.22
same,H1L1:H1L2 normalized median ratio,[10],84%
same,H1L1:H1L2 normalized median scalar value ln(r1/f1),[10],1.63
same,H1L1:H1L2 normalized median ratio,[11],24%
same,H1L1:H1L2 normalized median ratio,[12],21%
same,H1L1:H1L2 normalized median ratio,[13],76%
same,H1L1:H1L2 normalized median scalar value ln(r1/f1),[13],4
same,H1L1:H1L2 normalized median ratio,[14],79%
same,H1L1:H1L2 normalized median scalar value ln(r1/f1),[14],1.32
"D3H44 Fab heavy chain Q179K, ABD2-His6 tagged",H2L2:H2L1 normalized median ratio,[15],94%
same,H2L2:H2L1 normalized median ratio,[16],93%
same,H2L2:H2L1 normalized median ratio,[1],5%
same,H2L2:H2L1 normalized median ratio,[17],7%
same,H2L2:H2L1 normalized median ratio,[18],98%
same,H2L2:H2L1 normalized median ratio,[3],95%
same,H2L2:H2L1 normalized median ratio,[19],94%
same,H2L2:H2L1 normalized median ratio,[20],6%
same,H2L2:H2L1 normalized median ratio,[21],6%
same,H2L2:H2L1 normalized median ratio,[22],2%
D3H44 Fab heterodimer H L124E_L143E_K145T / L Q124K_V133G_S176R_T178K (H1L1 Fab of LCCA Set # 9298),Change in KD with respect to wild type (-(log(KD design) - log(KD wt))),[23],-0.12
same,Kd,[23],0.21 nM
"D3H44 Fab heterodimer, H L124E / L S131T_V133G_S176R_T178Y (H1L1 Fab of LCCA set 9104)",Change in KD with respect to wild type (-(log(KD design) - log(KD wt))),[24],-0.01
same,Kd,[24],0.16 nM
"D3H44 Fab heterodimer, H L124E_A139W / L F116A_V133G_L135V_S176R (H1L1 Fab of LCCA set 9116)",Change in KD with respect to wild type (-(log(KD design) - log(KD wt))),[25],-0.02
same,Kd,[25],0.16 nM
"D3H44 Fab heterodimer, H L124R_A125R_H172T / L V133G_N137K_S174R_S176D (H1L1 Fab of LCCA set 9347)",Change in KD with respect to wild type (-(log(KD design) - log(KD wt))),[26],-0.16
same,Kd,[26],0.23 nM
"D3H44 Fab heterodimer, H L124R_H172T / L V133G_N137K_S174R_S176D (H1L1 Fab of LCCA sets 9374, 9375)",Change in KD with respect to wild type (-(log(KD design) - log(KD wt))),[27],-0.16
same,Kd,[27],0.23 nM
same,Change in KD with respect to wild type (-(log(KD design) - log(KD wt))),[28],-0.16
same,Kd,[28],0.23 nM
"D3H44 Fab heterodimer, H Q39E_K145T_H172R_Q179E / L Q38R_S131K (H1L1 Fab of LCCA set 9813)",Change in KD with respect to wild type (-(log(KD design) - log(KD wt))),[29],-0.05
same,Kd,[29],0.18 nM
"D3H44 Fab heterodimer, H Q39E_K145T_Q179E / L Q38R_S131K (H1L1 Fab of LCCA set 9814)",Change in KD with respect to wild type (-(log(KD design) - log(KD wt))),[30],-0.01
same,Kd,[30],0.16 nM
"D3H44 Fab heterodimer, heavy L124E_L143E_K145T / light Q124K_V133G_S176R_T178K",Change in KD of h1|1 Fab heterodimer with respect to wild type (-(log(KD design) - log(KD wt))),[31],-0.12
same,Kd,[32],0.21 nM
"D3H44 Fab heterodimer, heavy L124E_L143E_K145T / light Q124K_V133G_S176R_T178R",Change in KD of h1|1 Fab heterodimer with respect to wild type (-(log(KD design) - log(KD wt))),[31],-0.07
same,Kd,[32],0.18 nM
"D3H44 light chain Q124E_S176L_T180E, N-terminal HA or FLAG tag",H1L1:H1L2 normalized median ratio,[33],43%
same,H2L2:H2L1 normalized median ratio,[34],97%
same,H2L2:H2L1 normalized median ratio,[35],97%
"D3H44 light chain S131E, N-terminal HA or FLAG tag",H1L1:H1L2 normalized median ratio,[36],53%
same,H2L2:H2L1 normalized median ratio,[34],98%
